Laboratory results from patent US20240083999A1 (published 2024).
Like-named read-outs stand apart in the source and are kept apart here.

What was measured:
[1] = target: T1, human interleukin 6 (hIL-6) (UniProt P05231 30-212); test: ELISA
[2] = target: T1, human interleukin 6 (hIL-6); test: ELISA; remark: listed apart in the source

T1 sequence (P05231 30-212): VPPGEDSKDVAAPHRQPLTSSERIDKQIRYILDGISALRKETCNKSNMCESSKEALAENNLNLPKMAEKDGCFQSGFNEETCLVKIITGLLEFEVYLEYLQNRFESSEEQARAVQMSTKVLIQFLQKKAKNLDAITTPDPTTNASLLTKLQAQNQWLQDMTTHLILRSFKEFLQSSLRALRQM

B1: JYK-D12/JYK-D12 homodimer (VHH)
chain: QVQLVESGGGLVQPGGSLGLSCAASGFTLAYYGIGWFRQAPGKEREGVACISSSDLSTYYADSVKGRFTISRDNAKDTVYLQMNSLKPEDTAVYYCAAGTWDLKFGYSRSNCVRSYEYDYWGQGTQVTVSSGGGGSGGGGSGGGGSQVQLVESGGGLVQPGGSLGLSCAASGFTLAYYGIGWFRQAPGKEREGVACISSSDLSTYYADSVKGRFTISRDNAKDTVYLQMNSLKPEDTAVYYCAAGTWDLKFGYSRSNCVRSYEYDYWGQGTQVTVSS
[1]
  EC50: 0.0842 nM

B2: hIL-6-binding VHH JYK-A1 (Trx/JYK-A1/E) (VHH)
VHH: QLQLAETGGGLVQPGGSLRLSCAASGFTLDYYAVGWFRQAPGKEREGISCISSSDLKTYYADSVKGRFTISRDYAKSTVSLQMNSLKPEDTGVYYCAAGTWDLKFGYNISACVGSYEYDYWDQGTQVTVSS
[2]
  EC50: 0.795 nM

B3: hIL-6-binding VHH JYK-A9 (Trx/JYK-A9/E) (VHH)
VHH: QVQLVESGGGLVQAGDSLTLSCAASGRPFSSFAMGWFRQAPGKEREFVAAITWSRGTTHYADSVKGRFTISGDNAKNTVFLQMNSLKPEDTAVYYCAAADGWKVVSTASPAYDYWGQGTQVTVSS
[2]
  EC50: 27.7 nM

B4: hIL-6-binding VHH JYK-H9 (Trx/JYK-H9/E) (VHH)
VHH: QLQLVETGGGLVQPGGSLRLSCAASGFTLDYYAIGWFRQAPGKEREGVSCLSSSDRSTYYVDSVKGRFTISRDDDKNTAYLQMNSLKPEDTATYYCAAGTWDLKWGYNISACVGSYEYDYWGQGTQVTVSS
[2]
  EC50: 0.811 nM

B5: hIL-6-binding VHH JYK-F12 (Trx/JYK-F12/E) (VHH)
VHH: QVQLAETGGGSVQAGGSLTLSCAASGRTFSSRAMGWFRQAPGKEREFVAVISWTGSPYYTDSVKGRFTISRDDAKNTVYLQMNSLKPEDTAVYYCAATSEHVMLVVTTRGGYDYWGQGTQVTVSS
[2]
  EC50: 14.4 nM

B6: hIL-6-binding VHH JYK-D12 (Trx/JYK-D12/E) (VHH)
VHH: QLQLVESGGGLVQPGGSLGLSCAASGFTLAYYGIGWFRQAPGKEREGVACISSSDLSTYYADSVKGRFTISRDNAKDTVYLQMNSLKPEDTAVYYCAAGTWDLKFGYSRSNCVRSYEYDYWGQGTQVTVSS
[2]
  EC50: 0.324 nM
